Where two headings read alike, the source gives them in different places.
What was measured:
[1] = target: T1, AMA-1 of Plasmodium falciparum strain 3D7, on parasites (schizonts/merozoites) (Plasmodium falciparum (strain 3D7), UniProt P22621 25-622); assay: cell-based or functional assay
T1 chain: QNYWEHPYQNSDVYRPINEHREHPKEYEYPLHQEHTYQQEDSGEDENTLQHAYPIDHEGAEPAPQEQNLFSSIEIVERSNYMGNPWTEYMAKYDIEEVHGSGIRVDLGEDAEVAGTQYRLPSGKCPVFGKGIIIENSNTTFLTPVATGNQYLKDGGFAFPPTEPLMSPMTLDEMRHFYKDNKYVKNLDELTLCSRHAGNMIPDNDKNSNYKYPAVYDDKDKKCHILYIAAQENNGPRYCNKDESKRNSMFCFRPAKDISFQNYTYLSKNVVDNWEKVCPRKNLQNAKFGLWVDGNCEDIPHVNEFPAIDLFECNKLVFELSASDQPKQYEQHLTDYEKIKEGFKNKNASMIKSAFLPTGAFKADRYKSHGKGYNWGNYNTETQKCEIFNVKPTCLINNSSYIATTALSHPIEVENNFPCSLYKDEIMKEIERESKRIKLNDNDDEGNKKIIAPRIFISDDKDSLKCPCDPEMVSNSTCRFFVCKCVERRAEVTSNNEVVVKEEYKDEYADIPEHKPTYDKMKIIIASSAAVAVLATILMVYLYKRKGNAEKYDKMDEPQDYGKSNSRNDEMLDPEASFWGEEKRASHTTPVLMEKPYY

[2] = target: AMA-1 of Plasmodium falciparum strain HB3, on parasites (Plasmodium falciparum (strain HB3)); assay: cell-based or functional assay
[3] = target: T1, AMA-1 of Plasmodium falciparum strain …; assay: cell-based or functional assay
[4] = target: AMA-1 of Plasmodium falciparum strain K1, on parasites (Plasmodium falciparum (strain K1)); assay: cell-based or functional assay
[5] = target: AMA-1 of Plasmodium falciparum strain FCR3, on parasites (Plasmodium falciparum (strain FCR3)); assay: cell-based or functional assay
[6] = target: T2, recombinant apical membrane antigen 1 (AMA-1) from Plasmodium falciparum 3D7, produced in Pichia pastoris, … (Plasmodium falciparum (strain 3D7), UniProt P22621 25-546); assay: SPR, Biacore T200, protein-A capture of the antibody, 25° C., 1:1 Langmuir fit
T2 construct: also called native target antigen AMA-1; recombinant AMA-1
T2 chain: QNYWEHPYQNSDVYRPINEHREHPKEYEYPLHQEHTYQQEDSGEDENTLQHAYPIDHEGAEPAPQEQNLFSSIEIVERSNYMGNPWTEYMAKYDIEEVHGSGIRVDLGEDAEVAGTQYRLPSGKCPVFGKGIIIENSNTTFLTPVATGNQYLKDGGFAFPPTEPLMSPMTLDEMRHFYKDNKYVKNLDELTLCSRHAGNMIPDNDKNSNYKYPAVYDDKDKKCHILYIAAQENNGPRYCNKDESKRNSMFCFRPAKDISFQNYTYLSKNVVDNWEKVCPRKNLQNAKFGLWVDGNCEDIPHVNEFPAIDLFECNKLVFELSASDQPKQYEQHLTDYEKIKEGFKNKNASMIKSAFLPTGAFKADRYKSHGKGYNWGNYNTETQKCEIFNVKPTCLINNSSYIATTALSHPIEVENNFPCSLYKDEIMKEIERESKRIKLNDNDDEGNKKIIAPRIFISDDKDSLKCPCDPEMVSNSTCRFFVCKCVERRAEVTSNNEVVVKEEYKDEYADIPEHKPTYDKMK
Description: All antibodies were diluted into running buffer to yield equivalent capture levels. The injection time was set to 180 s and dissociation was recorded for 600 s. The protein-A surface was regenerated by a 30 s pulse with 30 mM HCI. For the antibody buffer injections were used for double referencing. Values for the KD of the antibody were calculated according to the curve-fitting methodology for a simple binding model (1:1 Langmuir).

B1: huMAb-anti-AMA-1.1 (antibody, V domains shown)
VH: QVQLQESGPGLVKPSETLSLTCSVSGVSVSSTVFYWGWIRQSPGKGLEWIGSIYYSGSTYYNEALKSRLTLSVETSERQFSLRLSSVTAADTAVYYCARGAINFGGYSGPGTFYFDIWGQGTLITVSS
VL: DIQMTQSPSTLSASVGDRVTITCRASQSITTWLAWYQQKPGTAPKLLIYKASILETGVPSRFSGSGSGTDFTLTISSLQPDDFATYYCQQYSTHLFTFGPGTKVDIK
notes: also called recombinant human anti AMA-1 antibody
IC50 [µg/ml], growth inhibition assay (GIA), strain 3D7 [1]: 32 µg/mL | IC50 [µg/ml], growth inhibition assay (GIA), strain HB3 [2]: 115 µg/mL | IC50 [µg/ml], growth inhibition assay (GIA), strain 3D7 [3]: 32 µg/mL | IC50 [µg/ml], growth inhibition assay (GIA), strain K1 [4]: 113 µg/mL | IC50 [µg/ml], growth inhibition assay (GIA), strain FCR3 [5]: 230 µg/mL | Kd [6]: 0.188 nM | koff [6]: 0.000131 s⁻¹ | kon [6]: 698000 M⁻¹ s⁻¹

Source: US20180086823A1 (FRAUNHOFER GESELLSCHAFT ZUR FOERDERUNG DER ANGEWANDTEN …, published 2018)
